From article PMC3702509, “Label Free Fragment Screening Using Surface Plasmon Resonance as a Tool for Fragment Finding – Analyzing Parkin, a Difficult CNS Target” (PLoS ONE, 2013)

B1: Parkin domain R0RBR (residues 141-465) (domain or fragment, human, UniProt O60260-1 141-465, looked up)
chain: SIYNSFYVYCKGPCQRVQPGKLRVQCSTCRQATLTLTQGPSCWDDVLIPNRMSGECQSPHCPGTSAEFFFKCGAHPTSDKETSVALHLIATNSRNITCITCTDVRSPVLVFQCNSRHVICLDCFHLYCVTRLNDRQFVHDPQLGYSLPCVAGCPNSLIKELHHFRILGEEQYNRYQQYGAEECVLQMGGVLCPRPGCGAGLLPEPDQRKVTCEGGNGLGCGFAFCRECKEAYHEGECSAVFEASGTTTQAYRVDERAAEQARWEAASKETIKKTTKPCPRCHVPVEKNGGCMHMKCPQPQCRLEWCWNCGCEWNRVCMGDHWFDV
notes: Parkin residues 141-465 (NM_004562.1), R0, R1, IBR and R2 domains; Cloned into the Champion pET SUMO vector; The Sumo tag was removed with SENP1, and the protein is called untagged in the SPR methods; also called R0RBR Domain; source: E. coli BL21 DE3, purified (Ni sepharose, Mono Q, SENP1 cleavage, Superdex 200)

Key:
Test in all cases: SPR; untagged R0RBR immobilised by amine coupling (10 mM acetic acid pH 5.0) on a CM5 chip; protein ligands injected; 25°C; 10 mM HEPES pH 7.4, 150 mM NaCl, 0.005% Tween-20, 4 mM reducing agent; 1:1 binding model
Settings in all cases: both partners purified
[1] = target: B1
[2] = target: T1, UbcH7, E2 ubiquitin conjugating enzyme (UBE2L3 residues 1-154) (human, UniProt P68036-1 1-154)
T1 construct: UBE2L3 (UbcH7) residues 1-154 from NM_003347.2; UbcH7 was also bought from Boston Biochem. TEV cleavage probably leaves SS at the N-terminus (surmised); also called E2 UbcH7; source: E. coli BL21 DE3, purified (nickel sepharose, TEV cleavage, Superdex 200); not shown: His8, N-terminal, cleaved

Ubiquitin = target: T2, Ubiquitin (UniProt P0CG47 1-76)
T2 construct: ubiquitin, the cut product of a polyubiquitin or fusion precursor; neither species nor construct is stated; also called Ubq; source: bought: Boston Biochem

T1 sequence (P68036 whole entry, the tested form may be a part): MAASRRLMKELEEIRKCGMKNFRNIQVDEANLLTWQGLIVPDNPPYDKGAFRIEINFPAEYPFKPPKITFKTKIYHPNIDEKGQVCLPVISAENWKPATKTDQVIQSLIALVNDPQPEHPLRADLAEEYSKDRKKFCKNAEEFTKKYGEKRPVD

| Kd [1] | Kd [2] | Kd (Ubiquitin) | Binder |
| --- | --- | --- | --- |
| 6 µM | – | – | His-tagged ubiquitin-like domain of Parkin (UblD, residues 1-76) (domain or fragment, human, UniProt O60260-1 1-76, looked up, Parkin residues 1-76 (NM_004562.1), ubiquitin-like domain; also called His-UblD; source: E. coli BL21 DE3, purified (nickel sepharose, dialysed for Biacore); not shown: His6, C-terminal, kept) MIVFVRFNSSHGFPVEVDSDTSIFQLKEVVAKRQGVPADQLRVIFAGKELRNDWTVQNCDLDQQSIVHIVQRPWRK |
| – | 7.1 µM | 96 µM | B1 |
